Target: stabilized prefusion SARS-CoV-2 S ectodomain (SARS-CoV-2) (UniProt P0DTC2)
Assay: negative-stain electron microscopy

Substance | stoichiometry N (Fab per trimer) | stoichiometry N
COVA1-12 Fab | 1 | 
COVA2-04 Fab | 1 | 
COVA2-07 Fab | 1 | 
COVA2-15 Fab |  | 3 per trimer
COVA2-39 Fab | 1 | 

Source: publication PMC7299281
